Laboratory results reported in patent publication CN116478288A.

B1: 单克隆抗体ID 1 (phage粗培液, phage-displayed) (antibody, V domains shown)
VH: QVQLQQPGAELVKPGAPVKLSCKASGYTFTSYWMNWVKQRPGRGLEWIGRIDSSDSETHYNQKFKDKATLTVDKSSSTAYIQLSSLTSEDSAVYYCARQGEGLRRSWFPYWGQGTLVIVSA
VL: DIVLTQSPASLAVSLGQRATISCRASKSVSTSGYSYIHWYQQKPGQPPKLLIYVASNLQSGVPARFSGSGSGTDFTLNIHPVEEEDAATYYCQHIRELPWTFGGGTKLEIK
B2: 人源化抗体ID 4 (antibody, human IgG4 S228P, kappa, V domains shown)
VH: QVQLVQSGAEVKKPGASVKVSCKASGYTFTSYWMNWVRQAPGQGLEWMGRIDSSDSETHYNQKFKDRVTMTRDTSTSTVYMELSSLRSEDTAVYYCARQGEGLRRSWFPYWGQGTLVTVSS
VL: DIVMTQSPDSLAVSLGERATINCRASKSVSTSGYSYIHWYQQKPGQPPKLLIYVASNLQSGVPDRFSGSGSGTDFTLTISSLQAEDVAVYYCQHIRELPWTFGQGTKVEIKR

Legend:
[1] = molecular target: 人源CD47 (on cells: hCD47-overexpressing CHO-K1; Raji) (human) (UniProt Q08722); assay: flow cytometry, phage supernatant on CHO-K1 overexpressing human CD47, anti-M13 then fluorescent secondary
[2] = molecular target: 生物素化人源CD47蛋白 (购自Acro Biosystem) (human) (UniProt Q08722); assay: phage ELISA; biotinylated human CD47 on streptavidin plate; ratio of experiment to control
[3] = molecular target: 人源CD47 (on cells: hCD47-overexpressing CHO-K1; Raji) (human) (UniProt Q08722); assay: flow cytometry, phage supernatant; MFI on human CD47 CHO-K1 over MFI on wild-type CHO-K1
[4] = molecular target: 食蟹猴CD47 (on overexpressing CHO-K1 cells) (cynomolgus monkey); assay: flow cytometry, phage supernatant; MFI on cynomolgus CD47 CHO-K1 over MFI on wild-type CHO-K1
[5] = molecular target: 生物素化人源CD47蛋白 (购自Acro Biosystem) (human) (UniProt Q08722); assay: phage ELISA; biotinylated human CD47 on streptavidin plate, phage supernatant, HRP anti-M13
[6] = molecular target: 食蟹猴CD47 (on overexpressing CHO-K1 cells) (cynomolgus monkey); assay: flow cytometry, phage supernatant on CHO-K1 overexpressing cynomolgus CD47, anti-M13 then fluorescent secondary
[7] = molecular target: 人源CD47 (on cells: hCD47-overexpressing CHO-K1; Raji) (human) (UniProt Q08722); assay: flow cytometry on Raji cells (endogenous human CD47); Blank 58.3
[8] = molecular target: 人源CD47 (on cells: hCD47-overexpressing CHO-K1; Raji) (human) (UniProt Q08722); assay: flow cytometry, purified antibody 10 ug/ml on CHO-K1 overexpressing human CD47
[9] = molecular target: 食蟹猴CD47 (on overexpressing CHO-K1 cells) (cynomolgus monkey); assay: flow cytometry, purified antibody 10 ug/ml on CHO-K1 overexpressing cynomolgus CD47

| Binder | MFI [1] | 实验/对照 (OD450 ratio) [2] | h-CHOK1/CHOK1 (MFI ratio to wild-type CHO-K1) [3] | c-CHOK1/CHOK1 (MFI ratio to wild-type CHO-K1) [4] | OD450 (实验) [5] | MFI [6] | MFI [7] | MFI [8] | MFI [9] |
| --- | --- | --- | --- | --- | --- | --- | --- | --- | --- |
| B1 | 18300 MFI | 50.6 | 13.4 | 10.7 | 2.84 OD450 | 14600 MFI | – | – | – |
| B2 | – | – | – | – | – | – | 14200 MFI | 2040 MFI | 786 MFI |
